Data set [1] concerns D412A-68 D412A (Adeno-associated virus 2). The data set is described as follows: EMSA. Particulars: apparent Kd, same as wt; 40 mM KCl, 10 mM HEPES pH 7.5, poly dIdC, 25 C. Background: Mobility shift assays separate free from complexed probe on a gel.
The test system of data set [2] is Rep68H6 (wt Rep68) (Adeno-associated virus 2). Nature of the data set: EMSA. Particulars: apparent Kd; 40 mM KCl, 10 mM HEPES pH 7.5, poly dIdC, 25 C.

The results in this text go back to US6627617.

Take “AAV terminal repeat hairpin with double-stranded trs (32P-TR)”: the Kd in data set [1] and in data set [2] was 3 nM in each case.
